The assay deals with H1299 cells. As to the kind of experiment: Cell cycle analysis by flow cytometry. The assay is classed as cell-based, human. Particulars: H1299 cells infected with adenovirus expressing p53, 72 hours after infection. The procedure: FIG. 5. […] 72 hours after infection, cells were harvested and their cell cycle profile was analyzed (see materials and methods). B-C.
Flow cytometry was performed as described previously by Knights, C. D., et al. J. Cell Biol. 173(4):533-544 (2006).

B1: SUMO-1K37-48R: SUMO-1 mutant with lysines K37-K39 and K45, K46 and K48 substituted with arginine (protein, UniProt P63165 2-97, looked up, variant K37R K39R K45R K46R K48R)
Small ubiquitin-related …: SDQEAKPSTEDLGDKKEGEYIKLKVIGQDSSEIHFRVRMTTHLRRLRESYCQRQGVPMNSLRFLFEGQRIADNHTPKELGMEEEDVIEVYQEQTGG
B1 had an apoptotic cells of roughly 2%.

Source of the values: patent US20130288275A1, “COMPOSITIONS AND METHODS FOR DETECTING ACETYLATED SUMO PROTEINS” (Georgetown University, priority 2010, published 2013).
